Laboratory results reported in patent US20180346526.
Residue numbers refer to the chain shown, from its start. Numbers in names are those of the source.

Molecular target: T1, YydF18-49, truncated form of YydF with residues 18 to 49
T1 chain: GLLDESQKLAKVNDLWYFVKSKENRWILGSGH

B1: YydG C223A mutant (protein)
chain: MYNKTVSINLDSRCNASCDHCCFSSSPTSTTRMEKEYIRELVTEFAKNKTIQVISFTGGEVFLDYKFLKELMEIIKPYEKQITLISNGFWGLSKKKVQEYFHDMNSLNVIALTISYDEYHAPFVKSSSIKNILEHSRKYPDIDISLNMAVTKDKMSNHILEELGDSILGVKITKFPMISVGAAKTRIKQENIHKFYSLEDEDSLHCPGYDIVYHHDGEIYPCASPAIFETKITLREEYNQSFERTVEKLNSNLLLFILRKEGFKWFLNILKENNKIEEFDIPYEFSSICGVCGSLFNSAEKINYFYPYMEKYYNENFKV
In the case of B1, the “epimerization activity on the peptide substrate (HPLC, LC-MS)” value is reported as “The C223A mutation did not either prevent the epimerization activity”.

B2: YydG, radical SAM epimerase of Bacillus subtilis (wild type) (protein)
chain: B1 chain with A223C
B2 was tested, and the “Peptide 3*/Peptide 3 ratio relative to Peptide 2*/Peptide 2 ratio (tryptic peptide mapping)” value was “the Peptide 3*/Peptide 3 ratio was 5 times larger than the Peptide 2*/Peptide 2 ratio”, the “epimerization of Ile residues” value was “up to ˜35% of the Ile” and the “epimerization of Val residues” value was “˜10% of Val residues”. The “formation of epimerized peptide derivatives (HPLC)” value was “YydF18-49 proved to be a better substrate” and the “moles of 5'-dA produced per mole of modified product” value was “YydG produced one mole of 5′-dA per mole of modified product”.

B3: YydG C22A mutant (protein)
chain: B1 chain with C22A, A223C
For B3, the “enzyme activity on the peptide substrate (HPLC)” value was “the C22A mutation did not affect the activity of the enzyme and the three epimerized peptides were produced”.

B4: YydG A3 mutant (AxxxAxxA) (protein)
chain: B1 chain with C14A, C18A, C21A, A223C
With B4 the “conversion of the peptide substrate and SAM cleavage (HPLC)” value was “the A3 mutant was unable to convert the peptide substrate and to cleave SAM”.

B5: YydG C222A mutant (protein)
chain: B1 chain with C222A, A223C
In the case of B5, the “enzyme activity on the peptide substrate (HPLC)” value is reported as “The C222A mutant was also totally impaired for enzyme activity”.
